Experimental data from publication PMC4629677.

Biological target: microtubule (sea-urchin sperm axonemes) (sea urchin (sperm axonemes))
Assay: single-molecule fluorescence imaging

Row | duration time on MT (diffusive mode) | duration time on MT (short stop mode) | Substance
1 | 1.73 s |  | tail-GFP (kinesin tail 904-963 fused to EGFP) (from UniProt P33176 904-963) (domain or fragment)
2 |  | 1.47 s | 2T-K490CLM, two-tail stalk-truncated cysteine-light mutant kinesin (motility and ATPase experiments) (from UniProt P33176 1-490; P33176 904-963)
